Assay results from patent US7211395 (dated 2007).

What was measured:
[1] = biological target: T1, human serum albumin (HSA) (human, UniProt P02768); experiment: FP, pH 7.4, 0.14 M NaCl
chicken ovalbumin [2] = biological target: T2, chicken ovalbumin (chicken, UniProt P01012); experiment: FP, PBS pH 7.4
T2 chain: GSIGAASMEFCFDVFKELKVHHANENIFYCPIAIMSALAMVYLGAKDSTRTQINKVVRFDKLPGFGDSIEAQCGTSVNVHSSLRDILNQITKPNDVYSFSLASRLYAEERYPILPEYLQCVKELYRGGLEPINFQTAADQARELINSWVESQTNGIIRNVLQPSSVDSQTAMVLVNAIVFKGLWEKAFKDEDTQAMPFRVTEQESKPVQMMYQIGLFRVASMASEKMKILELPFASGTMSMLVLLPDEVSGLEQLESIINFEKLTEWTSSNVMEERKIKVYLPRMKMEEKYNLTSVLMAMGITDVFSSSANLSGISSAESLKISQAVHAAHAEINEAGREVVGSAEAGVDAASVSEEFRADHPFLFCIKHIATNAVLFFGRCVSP

pig serum albumin [3] = biological target: T3, pig serum albumin (pig, UniProt P08835); experiment: FP, PBS pH 7.4
T3 chain: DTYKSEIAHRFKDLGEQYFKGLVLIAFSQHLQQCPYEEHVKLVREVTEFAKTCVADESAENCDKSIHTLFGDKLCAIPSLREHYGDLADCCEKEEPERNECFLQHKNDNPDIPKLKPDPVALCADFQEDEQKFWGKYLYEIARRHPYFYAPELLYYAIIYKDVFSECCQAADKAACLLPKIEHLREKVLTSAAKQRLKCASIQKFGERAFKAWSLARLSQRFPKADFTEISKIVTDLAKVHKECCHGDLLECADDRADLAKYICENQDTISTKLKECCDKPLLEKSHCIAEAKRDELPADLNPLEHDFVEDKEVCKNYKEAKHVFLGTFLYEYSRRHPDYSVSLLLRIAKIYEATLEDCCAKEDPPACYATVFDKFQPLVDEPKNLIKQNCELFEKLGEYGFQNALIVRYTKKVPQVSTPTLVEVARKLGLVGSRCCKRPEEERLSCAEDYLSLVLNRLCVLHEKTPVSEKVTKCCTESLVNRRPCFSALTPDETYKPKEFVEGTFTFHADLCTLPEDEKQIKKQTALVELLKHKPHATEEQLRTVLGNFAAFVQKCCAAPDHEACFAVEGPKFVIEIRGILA

rhesus serum albumin = biological target: T4, rhesus serum albumin (rhesus macaque, UniProt Q28522); experiment: FP, pH 6.2, no NaCl
T4 chain: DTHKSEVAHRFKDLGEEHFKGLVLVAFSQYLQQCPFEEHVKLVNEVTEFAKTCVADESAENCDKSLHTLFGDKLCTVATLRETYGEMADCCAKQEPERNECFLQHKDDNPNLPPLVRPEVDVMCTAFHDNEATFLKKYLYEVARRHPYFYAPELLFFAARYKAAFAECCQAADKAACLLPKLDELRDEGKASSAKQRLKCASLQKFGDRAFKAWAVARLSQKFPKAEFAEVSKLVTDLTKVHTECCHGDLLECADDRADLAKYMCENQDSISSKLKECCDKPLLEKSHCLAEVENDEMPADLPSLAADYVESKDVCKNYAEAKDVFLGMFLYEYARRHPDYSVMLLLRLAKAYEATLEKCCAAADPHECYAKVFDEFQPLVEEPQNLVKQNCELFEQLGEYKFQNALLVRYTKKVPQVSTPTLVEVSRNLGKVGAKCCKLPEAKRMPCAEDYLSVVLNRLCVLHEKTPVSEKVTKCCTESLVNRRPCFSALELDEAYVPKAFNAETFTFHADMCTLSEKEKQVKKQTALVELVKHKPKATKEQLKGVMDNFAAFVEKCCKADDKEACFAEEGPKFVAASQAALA

bovine serum albumin [4] = biological target: T5, bovine serum albumin (bovine, UniProt P02769); experiment: FP, pH 6.2, no NaCl
T5 sequence (P02769 25-607): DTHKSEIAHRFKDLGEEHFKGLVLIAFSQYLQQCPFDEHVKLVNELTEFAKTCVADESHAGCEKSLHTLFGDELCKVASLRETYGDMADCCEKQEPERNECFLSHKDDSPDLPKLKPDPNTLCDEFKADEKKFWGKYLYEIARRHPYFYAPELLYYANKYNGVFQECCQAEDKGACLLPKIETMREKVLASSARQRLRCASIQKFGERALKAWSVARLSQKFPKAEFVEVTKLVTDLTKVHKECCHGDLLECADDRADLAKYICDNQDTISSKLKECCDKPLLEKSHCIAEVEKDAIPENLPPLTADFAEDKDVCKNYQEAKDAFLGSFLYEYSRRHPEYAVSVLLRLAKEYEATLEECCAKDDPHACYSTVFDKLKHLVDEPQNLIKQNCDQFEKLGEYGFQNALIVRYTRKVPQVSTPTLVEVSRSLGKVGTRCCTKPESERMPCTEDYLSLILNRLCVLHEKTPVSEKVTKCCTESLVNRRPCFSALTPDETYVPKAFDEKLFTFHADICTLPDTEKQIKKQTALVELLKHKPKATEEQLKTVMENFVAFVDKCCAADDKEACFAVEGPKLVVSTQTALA

pig serum albumin [5] = biological target: T3, pig serum albumin; experiment: FP, pH 6.2, no NaCl
rat serum albumin = biological target: T6, rat serum albumin (rat, UniProt P02770); experiment: FP, PBS pH 7.4
T6 chain: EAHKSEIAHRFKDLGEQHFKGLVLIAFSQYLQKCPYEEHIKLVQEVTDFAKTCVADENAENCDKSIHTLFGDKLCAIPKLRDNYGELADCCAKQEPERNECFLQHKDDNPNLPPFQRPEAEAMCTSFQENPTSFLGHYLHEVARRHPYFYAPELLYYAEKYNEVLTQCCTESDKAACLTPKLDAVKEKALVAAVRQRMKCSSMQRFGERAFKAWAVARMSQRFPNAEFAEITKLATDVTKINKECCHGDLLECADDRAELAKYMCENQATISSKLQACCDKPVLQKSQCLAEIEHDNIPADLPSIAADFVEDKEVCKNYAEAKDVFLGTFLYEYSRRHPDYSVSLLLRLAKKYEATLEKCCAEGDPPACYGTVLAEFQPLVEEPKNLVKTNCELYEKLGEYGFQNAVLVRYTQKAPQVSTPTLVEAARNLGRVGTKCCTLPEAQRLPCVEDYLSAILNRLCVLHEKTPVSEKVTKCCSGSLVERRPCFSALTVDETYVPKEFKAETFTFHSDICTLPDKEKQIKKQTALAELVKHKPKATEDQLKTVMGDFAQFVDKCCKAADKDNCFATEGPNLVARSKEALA

[6] = biological target: T1, human serum albumin (HSA); experiment: FP, pH 6.2, 0.14 M NaCl
bovine serum albumin [7] = biological target: T5, bovine serum albumin; experiment: FP, PBS pH 7.4
mouse serum albumin = mouse serum albumin (mouse, UniProt P07724); experiment: FP, PBS pH 7.4
mouse serum albumin, sequence (P07724 25-608): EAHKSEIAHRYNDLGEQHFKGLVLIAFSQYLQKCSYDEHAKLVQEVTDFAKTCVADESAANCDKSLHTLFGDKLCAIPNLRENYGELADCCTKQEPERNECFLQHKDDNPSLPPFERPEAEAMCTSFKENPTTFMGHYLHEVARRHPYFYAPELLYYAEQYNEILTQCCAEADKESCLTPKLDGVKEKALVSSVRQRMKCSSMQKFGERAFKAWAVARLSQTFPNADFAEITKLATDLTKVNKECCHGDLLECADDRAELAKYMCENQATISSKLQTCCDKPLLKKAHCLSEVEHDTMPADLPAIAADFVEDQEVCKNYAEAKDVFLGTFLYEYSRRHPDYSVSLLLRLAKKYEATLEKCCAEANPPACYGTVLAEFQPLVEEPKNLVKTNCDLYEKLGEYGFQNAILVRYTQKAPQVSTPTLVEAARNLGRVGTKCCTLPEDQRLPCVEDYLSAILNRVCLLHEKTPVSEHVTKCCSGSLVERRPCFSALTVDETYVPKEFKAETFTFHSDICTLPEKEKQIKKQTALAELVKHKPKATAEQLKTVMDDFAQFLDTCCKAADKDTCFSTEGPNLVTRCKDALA

chicken ovalbumin [8] = biological target: T2, chicken ovalbumin; experiment: FP, pH 6.2, no NaCl
[9] = biological target: T1, human serum albumin (HSA); experiment: FP, pH 6.2, no NaCl

- Kd [1]: 84 µM
- Kd (chicken ovalbumin [2]): > 200 µM
- Kd (pig serum albumin [3]): > 200 µM
- Kd (rhesus serum albumin): 38 µM
- Kd (bovine serum albumin [4]): 21 µM
- Kd (pig serum albumin [5]): 21 µM
- Kd (rat serum albumin): 117 µM
- Kd [6]: 9 µM
- Kd (bovine serum albumin [7]): > 200 µM
- Kd (mouse serum albumin): > 200 µM
- Kd (chicken ovalbumin [8]): > 200 µM
- Kd [9]: 0.9 µM
B1: DX-321 (peptide)
chain: AEGTGDRNMCKFSWIRSPAFCARADPEXK
modifications: disulfide cyclic, N-acetyl, C-amide, X = 6-aminohexanoic acid, fluorescein on Lys
